These results are taken from patent publication US6451528B1, “Sperm-specific AKAP protein genes and uses” (Oregon Health & Sciences University, priority 1999, dated 2002).

The test addresses T1, RIIα binding to AKAP110 (Mus musculus, UniProt P12367).
T1 construct: made in house; host or cells: E. coli
Kind of test: RII overlay binding assay with 32P-labeled RIIα. Particulars: peptide included in the binding assay at a concentration of 1 μM; results in FIG. 4D. As for the experimental part: The identity of AKAP110 in the extracts prepared as described above was determine using an RII overlay assay. This assay was based on previous experiments which had shown that PKA anchoring proteins could be specifically detected after electrophoretic separation by overlay with labeled RII subunit of mammalian PKA (see Vijayaraghavan et al., 1997, J. Biol. Chem. 272; 4747-4752). These assays were performed as follows. Polyacrylamide gel electrophoresis containing sodium dodecyl sulfate (SDS/PAGE) was performed as described in Johnson et al. (1997, Devel. Biol. 192: 340-350) and Visconti et al. (1997, Devel. Biol. 192: 351-363). Approximately […] protein per lane was loaded on a 10% gel and electrophoresed overnight at a constant current of 8mA. After electrophoresis, protein bands were transferred to Immobilon P (polyvinylidene difluoride, obtained from Millipore, Bedford, Mass.) as described in the Johnson and Visconti references. […]
The conserved regions of sequence are expected to correspond to functional domains. The portion of the sequence corresponding to the RII binding domain was determined using an RII overlay assay as follows. […] This blot was then hybridized with ^32P-labeled RIIα (results shown in FIG. 4A) or with horse radish peroxidase-conjugated S-protein that detects an S-tag expressed as a fusion protein by the pET30A vector (results shown in FIG. 4B). […]

T1 sequence (P12367 2-401 limits assumed): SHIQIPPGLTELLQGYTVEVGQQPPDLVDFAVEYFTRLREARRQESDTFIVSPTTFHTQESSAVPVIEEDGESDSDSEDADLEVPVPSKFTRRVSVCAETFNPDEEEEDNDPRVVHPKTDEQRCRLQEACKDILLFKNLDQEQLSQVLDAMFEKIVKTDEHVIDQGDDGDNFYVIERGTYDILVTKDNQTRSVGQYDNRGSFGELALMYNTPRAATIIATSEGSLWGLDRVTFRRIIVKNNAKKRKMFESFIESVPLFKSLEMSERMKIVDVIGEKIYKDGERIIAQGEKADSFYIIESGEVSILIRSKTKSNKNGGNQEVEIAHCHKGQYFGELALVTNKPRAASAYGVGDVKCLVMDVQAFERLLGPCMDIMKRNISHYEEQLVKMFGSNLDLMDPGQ

In the case of SFYANRLTNLVI (listed as Mus musculus), the “radiolabeled RIIα binding” value is given as “prevent radiolabeled RIIα binding”.
